Measurements published in PMC11153517.

Legend:
[1] = molecular target: human tumor necrosis factor (TNF)-α (human) (UniProt P01375)
[2] = molecular target: human tumor necrosis factor (TNF)-α (human) (UniProt P01375); remark: listed apart in the source

Chain of UniProt P01375 (P01375 whole entry): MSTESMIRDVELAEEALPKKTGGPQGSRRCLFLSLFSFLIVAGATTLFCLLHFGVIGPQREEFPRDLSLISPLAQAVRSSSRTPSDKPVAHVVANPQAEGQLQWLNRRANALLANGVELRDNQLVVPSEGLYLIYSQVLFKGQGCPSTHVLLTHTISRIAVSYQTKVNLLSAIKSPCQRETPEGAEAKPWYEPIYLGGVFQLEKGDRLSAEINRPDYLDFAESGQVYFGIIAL

B1: peptide … (peptide)
peptide: PIYLGGVFQ
[1]
  inhibition of TNFα-induced NFκB (p65) nuclear translocation in A549 cells, Western blot of nuclear extract; peptide 50, 100 and 200 μM (49%, 56% and 65%): 65 % inhibition
[2]
  apoptosis of Wehi-164 cells with TNFα (100 ng/ml) and actinomycin D, MTT assay, 20 h; peptide 50, 100 and 200 μM premixed with TNFα; 70% cell death with TNFα and AcD without the peptide: 26.4 % apoptosis
